Data from PMC5025654.

Columns and labels:
[1] = target: TGF-β1 of the porcine enamel matrix (porcine (endogenous in porcine enamel)); experiment: co-elution on RP-HPLC, TGF-β1 quantified by ALP-inducing activity of HPDL cells; amelogenins as purified from enamel (before the in vitro binding); ng of TGF-β1 per mg of amelogenin calculated from standard CF-hTGF-β1 (0.3 ng mL^-1), after dilution correction; complexes formed in vivo
[2] = target: carrier-free recombinant human TGF-β1 (human); experiment: in vitro binding, RP-HPLC, TGF-β1 quantified by ALP-inducing activity of HPDL cells; purified amelogenin mixed with CF-hTGF-β1 or rh-latent TGF-β1, fractions from RP-HPLC tested in the ALP-HPDL system; ng per mg of amelogenin calculated from standard CF-hTGF-β1 (0.3 ng mL^-1), after dilution correction; details in the Supplementary Methods
carrier-free recombinant human TGF-β1 (human), sequence (P01137 279-390): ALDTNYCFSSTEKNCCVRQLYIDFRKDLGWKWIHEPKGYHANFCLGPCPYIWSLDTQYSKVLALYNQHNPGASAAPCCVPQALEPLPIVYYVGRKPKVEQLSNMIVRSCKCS

TGF-β1 of the porcine enamel matrix (porcine (endogenous in porcine enamel)), sequence (P07200 279-390): as the sequence (P01137 279-390) above

- original TGF-β1, ng against 1 mg of amelogenin [1]: 0.345 ng
- bound TGF-β1, ng against 1 mg of amelogenin [2]: 1.18 ng
B1: P173 amelogenin (natural protein)
chain: MPLPPHPGHPGYINFSYEVLTPLKWYQNMIRHPYTSYGYEPMGGWLHHQIIPVVSQQTPQSHALQPHHHIPMVPAQQPGIPQQPMMPLPGQHSMTPTQHHQPNLPLPAQQPFQPQPVQPQPHQPLQPQSPMHPIQPLLPQPPLPPMFSMQSLLPDLPLEAWPATDKTKREEVD
